Data: patent US8609611B2, “Synthesis of small particles” (MAP Pharmaceuticals, Inc., priority 2001, dated 2013)
Like-named read-outs stand apart in the source and are kept apart here.

Tests used:
[1] = Size exclusion chromatography: biochemical integrity, monomer content; type: physicochemical; conditions: by anti-solvent used in processing
Method: A protein-Pak 125 column (Waters, USA) was used for insulin. The mobile phase consisted of 50 mM sodium phosphate buffer at pH 3 with 300 mM sodium chloride. The powder samples were dissolved to prepare 1 mg/mL solution in deionised water by gentle shaking for 10 minutes to have complete dissolution. The supernatant was filtered through […] membrane filter and then injected into the HPLC column. […] The software Millennium 3.5 was used in the quantification of the monomer content.

[2] = Median particle size by laser diffraction; type: physicochemical
Source text: These fine insulin particles may aggregate to form larger particles due to intermolecular interaction between the molecules. […] Insulin precipitated as nano-sized particles, was also agglomerated to micron-sized particles.

[3] = Aerosol performance by Cascade Impactor (5 stage Marple-Miller Impactor), fine particle mass; type: physicochemical; conditions: 60 L/min, Dinkihaler, FIG. 6
Method: In order to determine the aerosol performance of the collected fine protein particles, in vitro testing of the particles was assessed using a 5 stage Marple-Miller Impactor (Model 160, MSP Corporation, USA) with cut-off diameters of 10.0, 5.0, 2.5, 1.25, and 0.625 μm. The Marple-Miller impactor consisted of a stainless steel inlet throat, five impaction stages and an integral filter stage. The stages were previously coated with propylene glycol/methanol (50:50) to prevent particle bounce, thus minimising the probability of carry over of coarse particles onto lower stages.
A mass of 10-20 mg of insulin was weighed into a gelatin capsule (size 3, Park Davis, Australia) and was immediately dispersed by a powder inhaler device, Dinkihaler (Aventis, Frankfurt, Germany) into the Marple Miller Impactor at 60 L/min using a vacuum source (ERWEKA GMBH, Germany). The fraction of the protein recovered in each stage was calculated by measuring the absorbance of the protein solution against the absorbance of a standard 1% solution of insulin.

[4] = Size of precipitated primary particles (SEM images); type: physicochemical
Source text: These fine insulin particles may aggregate to form larger particles due to intermolecular interaction between the molecules.

[5] = values reported in the literature; cited from earlier work

Substance	retention of biological activity as indicated by the in vitro test for monomer content [1]	median particle size (laser diffraction) of agglomerated powder [2]	median particle size (laser diffraction) of agglomerated powder ([2]; listed as Insulin)	fine particle fraction (%<5 μm) [3]	size of nano-sized particles as precipitated ([4]; modified (dual chamber) ASES apparatus)	size of nano-sized particles as precipitated ([4]; single-stage apparatus)	maximum FPM for insulin obtained by other methods [5]
CO2-ethanol: Insulin particles precipitated from aqueous solution using CO2-20 mol % ethanol as anti-solvent	significant deactivation						
Ethane-ethanol	retention of biological activity						
insulin: Low endotoxin bovine insulin (Sigma), micronised from aqueous solution by the ASES process into fine particles		5 μm	about 5 μm	at least 42%	50-500 nm	50-500 nm	≤ 10%
